# Patent US20040253587A1
# Where “and” joins values, the source holds several entries; their conditions need not be identical. Identical values can stand only once.
# Target: IL-15 receptor complex on CTLL-2 cells
# Assay: cell-based or functional assay
CTLL Inhibition Assay units/ml (Antagonist Activity),concentration of antagonist required to neutralize 40 pg/ml IL-15 in CTLL inhibition assay [ng/mL],Substance
279 units/ml,,IL-15 (from UniProt P40933 49-162) (ligand)
2e+06 units/ml and 5e+06 units/ml,,IL-15-D56C (from UniProt P40933 49-162) (ligand)
200000 units/ml,,IL-15-D56C-Q156C (from UniProt P40933 49-162) (ligand)
700000 units/ml,,IL-15-D56C-Q156S (from UniProt P40933 49-162) (ligand)
220000 units/ml,,IL-15-D56S (from UniProt P40933 49-162) (ligand)
720000 units/ml,,IL-15-D56S-Q156S (from UniProt P40933 49-162) (ligand)
3e+06 units/ml,,IL-15-Q156C (from UniProt P40933 49-162) (ligand)
1.5e+06 units/ml,,IL-15-Q156S (from UniProt P40933 49-162) (ligand)
7.96e+06 units/ml,7.7,PEG-IL-15-D56C (from UniProt P40933 49-162) (ligand)
